B1: BT3057^4S-Gal/GalNAc (enzyme, Bacteroides thetaiotaomicron, UniProt Q8A397 1-508, looked up)
chain: QERPNIIVFLVDDMGLMDTSVPFIADESGQPVRHPLNDWYHTPNMERLAKQGICFSTFYAQSVSSPSRASIMTGQNATRHGVTNWINAESNNRNPFGPPQWNWKGLRKDMPTMPRVLQQAGYKTIHVGKAHFGCMGSEGENPLNIGFDVNIAGSGIGHPGSYYGEWGYGHIKGQKIRAVPDLEKYHGTDTFLSEALTIEANREITKAVEEKRPFYLNMAHYAVHSPFQADKRFLSRYTDPDKNEQARAFATLIEGMDKSLGDIMDQLEKLGIAENTLILFLGDNGGDAPLGDERGYGSSAPLRGKKGTEFEGGMRVPFIAAWAKPEKKSKVQKNLPIEVGSMQTQLGTIMDIYPTVLSVAGCEVPQNYVIDGFDLKKQLSGKVDKKRPESFLMHFPHAHRGSYFTTYRMGDWKLIYYYLPETPKQPKALLYNLKDDPEERNELSAAHPDQCREMIREMSARLEKEGALYPVDKQGNELKPFVYF
B2: BT3796^4S-Gal/GalNAc (enzyme)
chain: QTQKSAQTQRVDKRPNIILFMVDDMGWQDTSLPFWTQKTDYNKLYETPNMERLAKQGMMFTQAYASSISSPTRCSLITGTNAARHRVTNWTLQKNTKTDRKDKVLDVPDWNYNGVSQVPGTNNTFVGTSFVQLLKDSGYHTIHCGKAHFGAIDTPGEDPHHWGFEVNIAGHAAGGLASYLGEENYGHNKDGKPISLMAVPGLEKYWGTETFVTEALTLEAIKALNKAKKYNQPFYLYMSQYAIHVPLDKDKRFYDKYKKKGMTDHEAAYATLIEGMDKSLGDLMDWLEKSGEADNTIIIFMSDNGGLAAESYWRDGKLHTQNHPLNSGKGSTYEGGIREPMIVSWPGVVAPGSKCNDYLLIEDFYPTILEMAGIKKYKTVQPIDGISFMPLLKQTRNPSKGRSLFWNMPNNWGNDGPGINFNCAVRKGDWKLIYYYGTGKKELFNIPDDIGESNDLSAQHPDIVKRLSKELGTYLRKVDAQRPTVKATGKPCPWPDEIK

Target: the molecule itself
Assay: SEC-MALS

Protein	stoichiometry N
B1	2
B2	2

— doi:10.1101/2021.07.23.453482 (bioRxiv, 2021)
